Tested on: peptide library, one residue held at a place counted from the Y acceptor
Test: relative phosphorylation of the sub-library (ratio to the mean residue at this position); higher = residue favoured
Method in brief: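 In 384-well plates, purified recombinant kinases were incubated for 90 min with 50 μM ATP containing γ-32P-ATP and biotinylated Tyr-centred peptide libraries, each mixture fixing one residue at a single position between −5 and +5. After capture on streptavidin membranes and rinsing, peptides were quantified by phosphorimaging with ImageQuant. Per-position intensities were scaled to the sum of the 18 (Ser/Thr-free library: 16) randomized residues, then multiplied by that number.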

Sequence of MET, construct: aa956-end, human (P08581 956-1390, looked up): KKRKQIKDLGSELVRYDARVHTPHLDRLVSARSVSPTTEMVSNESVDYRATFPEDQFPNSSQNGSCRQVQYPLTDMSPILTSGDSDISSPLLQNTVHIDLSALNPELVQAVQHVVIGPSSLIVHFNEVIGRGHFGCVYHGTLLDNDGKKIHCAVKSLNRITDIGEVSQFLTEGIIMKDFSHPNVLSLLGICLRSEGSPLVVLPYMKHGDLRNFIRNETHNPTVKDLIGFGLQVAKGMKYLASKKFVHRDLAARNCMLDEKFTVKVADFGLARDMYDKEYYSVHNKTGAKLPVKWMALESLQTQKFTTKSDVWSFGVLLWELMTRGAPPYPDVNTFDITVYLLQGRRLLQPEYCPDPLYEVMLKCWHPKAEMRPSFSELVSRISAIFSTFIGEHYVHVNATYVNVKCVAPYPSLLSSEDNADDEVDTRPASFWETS

MET, construct: aa956-end, human (from UniProt P08581)
relative phosphorylation
Conditions | at +1 | at +2 | at +3 | at +4 | at +5 | at -1 | at -2 | at -3 | at -4 | at -5
A fixed | 1.33 | 1.03 | 0.632 | 0.901 | 1.11 | 0.739 | 1.1 | 0.977 | 1.04 | 1.05
D fixed | 0.433 | 0.808 | 0.32 | 0.658 | 0.938 | 1.86 | 1.52 | 1.64 | 1.4 | 1.27
E fixed | 0.821 | 0.83 | 0.252 | 0.581 | 0.861 | 1.37 | 1.45 | 1.79 | 1.61 | 1.09
F fixed | 1.25 | 1.07 | 1.28 | 1.3 | 1.05 | 0.688 | 0.534 | 0.663 | 0.914 | 0.869
G fixed | 0.609 | 0.616 | 0.564 | 1.02 | 0.906 | 0.478 | 1.21 | 1.22 | 1.21 | 1.11
H fixed | 1.34 | 0.874 | 0.869 | 0.998 | 0.879 | 1.24 | 0.819 | 0.911 | 0.916 | 1
I fixed | 1.4 | 0.913 | 2.4 | 0.797 | 0.796 | 1.7 | 0.711 | 0.529 | 0.737 | 0.721
K fixed | 0.531 | 0.705 | 0.431 | 0.87 | 0.978 | 0.496 | 0.738 | 0.866 | 0.86 | 1.19
L fixed | 0.758 | 0.935 | 1.9 | 0.771 | 1.02 | 1.06 | 0.704 | 0.558 | 0.728 | 0.724
M fixed | 0.84 | 0.833 | 1.43 | 0.883 | 0.965 | 0.774 | 0.583 | 0.596 | 0.746 | 0.733
N fixed | 0.574 | 1.29 | 0.537 | 0.875 | 1.02 | 1.26 | 1.16 | 1.37 | 0.984 | 0.995
P fixed | 0.442 | 0.961 | 1.36 | 1.09 | 1.21 | 0.659 | 1.59 | 1.22 | 1.18 | 1.16
Q fixed | 1.21 | 1.03 | 0.578 | 0.994 | 0.932 | 1.12 | 1.17 | 1.1 | 1.07 | 0.976
R fixed | 0.887 | 1.07 | 0.554 | 1.06 | 1.05 | 0.597 | 0.88 | 0.918 | 0.995 | 1.18
S fixed | 1.11 | 1.25 | 0.616 | 0.957 | 1.2 | 0.704 | 1.34 | 1.27 | 0.948 | 1
T fixed | 1.26 | 1.18 | 0.723 | 0.899 | 1.02 | 1.11 | 0.99 | 0.977 | 0.767 | 0.893
V fixed | 1.99 | 1.07 | 1.72 | 0.851 | 0.867 | 1.21 | 0.868 | 0.605 | 0.711 | 0.735
W fixed | 1.22 | 1.54 | 1.84 | 2.49 | 1.2 | 0.931 | 0.629 | 0.784 | 1.19 | 1.31
pThr fixed | 1.16 | 1.4 | 0.271 | 0.399 | 0.597 | 2.21 | 1.93 | 1.77 | 1.38 | 1.32
pTyr fixed | 3.19 | 2.63 | 0.524 | 0.871 | 0.771 | 4.16 | 1.47 | 1.82 | 2.14 | 1.64

MKK6, construct: Full length, human (from UniProt P52564)
relative phosphorylation
Conditions | at +1 | at +2 | at +3 | at +4 | at +5 | at -1 | at -2 | at -3 | at -4 | at -5
A fixed | 0.98 | 0.864 | 0.898 | 0.991 | 0.809 | 1.01 | 0.924 | 1.01 | 1.08 | 1.07
D fixed | 1.16 | 1.47 | 1.16 | 1.39 | 1.26 | 1.56 | 1.38 | 1.17 | 1.2 | 1.25
E fixed | 1.18 | 1.32 | 1.29 | 1.24 | 1.3 | 1.41 | 1.31 | 1.03 | 1.18 | 1.22
F fixed | 0.736 | 1.04 | 1.08 | 1.11 | 1.06 | 0.746 | 0.926 | 1.05 | 0.926 | 1.03
G fixed | 1.45 | 0.959 | 0.966 | 1.04 | 1.06 | 1.31 | 0.972 | 0.972 | 1.21 | 1.04
H fixed | 0.977 | 1.01 | 0.93 | 1.02 | 0.997 | 1.08 | 1.08 | 1.01 | 1.04 | 1.1
I fixed | 0.66 | 0.709 | 0.711 | 0.742 | 0.819 | 0.643 | 0.668 | 0.746 | 0.718 | 0.798
K fixed | 0.807 | 0.912 | 0.926 | 0.872 | 0.845 | 0.724 | 0.915 | 1.02 | 0.841 | 0.922
L fixed | 0.816 | 0.825 | 0.76 | 0.83 | 0.896 | 0.814 | 0.819 | 0.859 | 0.904 | 0.791
M fixed | 0.975 | 0.862 | 0.925 | 0.897 | 0.928 | 0.891 | 0.891 | 0.855 | 0.886 | 0.796
N fixed | 1.11 | 0.973 | 1 | 0.958 | 1.03 | 1.09 | 1.19 | 1.12 | 0.966 | 1.16
P fixed | 1.18 | 1.03 | 1.12 | 1.2 | 1.05 | 1.03 | 0.989 | 0.851 | 1.09 | 1.03
Q fixed | 1.02 | 0.887 | 0.978 | 0.934 | 1.08 | 1.11 | 1.01 | 1.25 | 1.07 | 1.01
R fixed | 1.05 | 0.781 | 0.921 | 0.867 | 0.93 | 0.76 | 0.866 | 1.19 | 0.955 | 0.928
V fixed | 0.738 | 0.797 | 0.832 | 0.736 | 0.792 | 0.569 | 0.691 | 0.746 | 0.817 | 0.778
W fixed | 1.15 | 1.55 | 1.52 | 1.17 | 1.14 | 1.25 | 1.36 | 1.12 | 1.12 | 1.08
pThr fixed | 1.51 | 1.74 | 1.23 | 1.52 | 1.24 | 1.39 | 1.11 | 1.57 | 1.29 | 1.34
pTyr fixed | 1.13 | 1.18 | 1.3 | 1.36 | 1.41 | 1.85 | 1.21 | 1.33 | 1.1 | 1.26
